This test deals with ZIKV-E蛋白 (寨卡病毒E蛋白胞外区, C端6*His, 大肠杆菌表达复性) (Zika virus, UniProt A0A024B7W1 291-699). Put plainly: SPR, Biacore T100, antibody captured by anti-human IgG on CM5, ZIKV-E as analyte.
Sequence of ZIKV-E蛋白 (寨卡病毒E蛋白胞外区, C端6*His, 大肠杆菌表达复性) (A0A024B7W1 291-699, tags left off): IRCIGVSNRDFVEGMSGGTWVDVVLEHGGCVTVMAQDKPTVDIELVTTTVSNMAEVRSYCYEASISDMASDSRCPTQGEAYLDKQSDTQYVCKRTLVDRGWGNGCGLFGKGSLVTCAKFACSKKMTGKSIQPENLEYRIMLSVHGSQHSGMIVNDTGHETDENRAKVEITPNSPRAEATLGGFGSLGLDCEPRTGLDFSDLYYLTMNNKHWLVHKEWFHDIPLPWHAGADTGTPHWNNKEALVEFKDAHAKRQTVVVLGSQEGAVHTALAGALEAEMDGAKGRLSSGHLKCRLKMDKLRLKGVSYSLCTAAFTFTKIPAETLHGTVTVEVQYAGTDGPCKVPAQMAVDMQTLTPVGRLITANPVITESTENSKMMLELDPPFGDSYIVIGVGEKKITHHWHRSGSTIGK

B1: Z7 (antibody, V domains shown)
V domain 1: QVQLQESGPGLVKPSETLSLTCTVFGGSVNNPTNYWGWIRQSPGKGLEWIGSVYYTGINYYNPSLESRVTIAVVTSKNQFSLKLTSVTATDTAVYYCARHPRPETGYDFDYWGQGTLVTVSS
V domain 2: QSVLTQPPSVSAAPGQKVTISCSGSSSNIGNNYVSWYQQLPGTAPKLLLYDNNKRPSGTPDRFSGSKSGTSATLGIAGLQTGDEAVYHCATWDSSLSAEVFGGGTQVTVLG
notes: also called 克隆Z7; 人源单克隆抗体Z7
In turn, B1 returned a Kd of 0.2 nM.

B2: Z6 (antibody, V domains shown)
VH: QVQLQESGPGLVKPSETLSLICTVSGGSISTRDYYWGWIRQTPGKGLEWIGSIYYSGGTYYSPSLKSRVTISVDTSKNQFSLKLRSVTAADTAVYYCARQWGNYFDHWGQGSLVTVSS
VL: DIVLTQSPSFLSASVGDRVTITCRASQGIDTYLAWYQQKPGKAPKLLIYGASTLQSGVPSRFSGSGSGTEFTLTISSLQPEDFATYYCQQLNNYHFTFGPGTKVDIKR
notes: also called 克隆Z6; 人源单克隆抗体Z6
Molecule B2 registered a Kd of 0.0447 nM.

B3: Z5 (antibody, V domains shown)
VH: QVQLQESGHRLVKPSETLSLTCTVSGGSISSDPYLWGWIRQPPGKGLEWIGSIYHSGSAYYNPSLKSRVTLSVDTSRNQFSLKVNSVTATDTAVYYCVEVAPPEKWGRGILVTVSS
VL: QSALTQPPSASGSPGQSVTISCTGTSSDVGGYNYVSWYQQHPGKAPKLMIYAVNKRPSGVPDRFSGSKSGNTASLTVSRLQDDDEADYYCSSYGGSNNILFGGGTKLTVLG
notes: also called 克隆Z5; 人源单克隆抗体Z5
For the molecule B3, binding was characterised by a dissociation constant (Kd) of 0.0399 nM.

The values are drawn from patent CN106589116A (INST MICROBIOLOGY CAS, dated 2017).
